The values below come from the supplement of paper PMC9170038.

The subject of this data set is MS2 coat protein. Description: apparent KD of MS2 coat protein; designed switch direction (-1 OFF switch, 1 ON switch): -1; higher = weaker reporter binding. An outline of the steps:
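Three titration conditions were used: no input, 200 uM small-molecule ligand, and an oligonucleotide input. In each, SNAP-549-labelled MS2 coat protein was raised from 0.7 or 1.5 nM, doubling, to 3 µM over designed RNA switches transcribed on Illumina chips by stalled E. coli RNA polymerase. Curve fits of normalised cluster fluorescence gave values whose per-design median over clusters is the apparent KD.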

Where [1] appears, read: input ligand: microRNA oligo, concentration not stated.
[2] abbreviates: Eterna round: R95, input ligand: FMN 200 uM.
The mark [3] stands for this setting: Eterna round: R95, input ligand: microRNA oligo, concentration not stated.
Setting [4] is: Eterna round: R95, input ligand: none.

With “UCGGAUUCAGGAUAUUGCACAUGUGACAUGAGGAUCACCCAUGUUCCCUUAUUUGGUCACCAAGAAGGGAGUUUAU [Eternabot (L2) Solution 34] (Eterna round: R97, puzzle: Exclusion 5)”, the “apparent KD of MS2 coat protein” value worked out at 0.157 µM (input ligand: FMN 200 uM) and 0.152 µM (input ligand: none).

Consider “UAAAAGCUAGGAUAUAGAGACAGAAACUUGAGGAUCACCCAAGUGAGUCAAGCUAUGUCGCUAGAAGGAGCGAAAA [Qubetizaa] (Eterna round: R97, puzzle: Exclusion 5)”, for which the “apparent KD of MS2 coat protein” value is, setting by setting: (input ligand: FMN 200 uM) 0.278 µM; (input ligand: none) 0.032 µM.

On to “ACAAGCUUUUUGCUCGUUUACAUGAGGAUCACCCAUGUGUCUUCACGCCCGGGCCCGGGCAAGCCCGGGCCCGGGCG [-47, -77, A 16%] (Eterna round: R97, puzzle: Sensor, turn-off variant 1)”, for which the “apparent KD of MS2 coat protein” value (input ligand: FMN 200 uM) is 0.0456 µM and the “apparent KD of MS2 coat protein” value (input ligand: none) amounted to 0.045 µM.

For the sequence “UUCGUGCAGCUUUGCUGUACGAGUACAUGAGGAUCACCCAUGUAGGAUAUGGUACGCUUUGCGUGCUAGAAGGAUAUGUGUAGG [JL EXNG3 1.37] (Eterna round: R96, puzzle: Exclusion NG 3)”, the “apparent KD of MS2 coat protein” value is 0.0555 µM (input ligand: FMN 200 uM), 0.0275 µM under setting [1] and 0.0439 µM (input ligand: none).

As for “CCGAGGUGGCGGUCCUAUGACAUGAGGAUCACCCAUGUACCUCGCCACAAGCUUUUUGCUCAUCUUAUAAUUCUCGG [Gelelebius] (puzzle: Sensor v3, turn-off variant 1)”, the “apparent KD of MS2 coat protein” value reads like this: under setting [2], 0.018 µM; under setting [3], 0.117 µM; under setting [4], 0.0161 µM.

Take “GCAGCAACUCUAAUCAAAUCAACAUGAGGAUCACCCAUGUCUCAGGAUAUGGUCUGGAUUACAGGCCAGAAGGGAGAAAGCUGC [Eli exng3 - 048] (Eterna round: R96, puzzle: Exclusion NG 3)”: the “apparent KD of MS2 coat protein” value (input ligand: FMN 200 uM) came out at 0.0165 µM, the “apparent KD of MS2 coat protein” value under setting [1] was found to be 0.0139 µM and the “apparent KD of MS2 coat protein” value (input ligand: none) was determined as 0.0166 µM.

Take “GGAUCGAAUGUGAGGAUAUGCUGGUCCUUGGAUCAGCAGAAGGCACAUGAGGAUCACCCAUGUGAUAUCGAUCC [Eli bmx4 4.71] (Eterna round: R97, puzzle: Brourd's mod of Exclusion 4)”: the “apparent KD of MS2 coat protein” value (input ligand: FMN 200 uM) came out at 0.443 µM and the “apparent KD of MS2 coat protein” value (input ligand: none) is 0.0892 µM.

“GAAUUAGUAGGAUAUACAUGAGGAUCACCCAUGUCUCAAACCAUGUACAGGAGAGGCUGUAGAAGGACUGAACA [Eternabot (Original) Solution 19] (Eterna round: R97, puzzle: Exclusion 3)”: the “apparent KD of MS2 coat protein” value is 0.036 µM (input ligand: FMN 200 uM) and 0.0317 µM (input ligand: none).

On to “UGUGUGAGACAGGAUAUGCCGGAUGAAUUGCAGGUAGAAGGGUCUACAUGAGGAUCACCCAUGUGGCCGGUUGG [Ex6 #76] (Eterna round: R97, puzzle: Exclusion 6)”, for which the “apparent KD of MS2 coat protein” value reads like this: (input ligand: FMN 200 uM) 0.0198 µM; (input ligand: none) 0.0136 µM.

“ACAUUACAUGAGGAUCACCCAUGUGAGGAUAUGGAGCGGUAGUGUCCUGUCGCGUACACCAGAAGGCGCGGGUG [1st #48] (Eterna round: R97, puzzle: Exclusion 1)”: the “apparent KD of MS2 coat protein” value by setting is: (input ligand: FMN 200 uM) 0.282 µM; (input ligand: none) 0.0906 µM.

“CAGGAUAGAGGAUAUACAUAGAUACAGAUUCGUGUGAUCCUACAUGAGGAUCACCCAUGUAGAAGGCUAUCCUG [Fiskers Ex 2 - 23] (Eterna round: R96, puzzle: Exclusion 2)”: the “apparent KD of MS2 coat protein” value was found to be 0.082 µM (input ligand: FMN 200 uM), 0.392 µM under setting [1] and 0.587 µM (input ligand: none).

As for “GGGUGUGAAGGAUAUACAUGAGGAUCACCCAUGUGAGAGGAGAAUGUUGAGGAGGUUGGUAGAAGGUCAGGAGG [JR_Exclusion3_Sub010] (puzzle: Exclusion 3)”, the “apparent KD of MS2 coat protein” value under setting [3] amounted to 0.0791 µM.

With “AGCCCUGCAGGAUAUGCCCGGGAUAACAUGAGGAUCACCCAUGUGACCGAUUGUUAAUCUGCAGAAGGGCAUGGGA [JL-EX5-4.18 ViennaUCT mod] (Eterna round: R97, puzzle: Exclusion 5)”, the “apparent KD of MS2 coat protein” value was 0.313 µM (input ligand: FMN 200 uM) and 0.563 µM (input ligand: none).

Consider “AGUACUAUCACGAAAGUGUUAGUACAAUAAGCUUGUGAAACAUGAGGAUCACCCAUGUCCUCAUAAGCUCGUCUUAU [salish99_TOv2_r3_019] (puzzle: Sensor v3, turn-off variant 2)”, for which the “apparent KD of MS2 coat protein” value is, setting by setting: under setting [2], 0.0169 µM; under setting [3], 0.868 µM; under setting [4], 0.0157 µM.

Take “AUCGUGCAGCAAAGCUGUACGAGUACAUGAGGAUCACCCAUGUAGGAUAUGGUACGCUUUGCGUGCUAGAAGGAUAUGUGUAGG [Mat - Exclusion NG 3 - Mod of JL - D83] (Eterna round: R96, puzzle: Exclusion NG 3)”: the “apparent KD of MS2 coat protein” value (input ligand: FMN 200 uM) is 0.0357 µM, the “apparent KD of MS2 coat protein” value under setting [1] amounted to 0.031 µM and the “apparent KD of MS2 coat protein” value (input ligand: none) was 0.0357 µM.

In the case of “AGUACUACCACGAAAGUGUUAGUACAAUAAGCUUGUGAAACAUGAGGAUCACCCAUGUCCUCAUAAGCUCGUCUUAU [salish99_TOv2_r3_021] (puzzle: Sensor v3, turn-off variant 2)”, the “apparent KD of MS2 coat protein” value was 0.0167 µM under setting [2], 0.524 µM under setting [3] and 0.0165 µM under setting [4].

Regarding “CUGCUGGAGCUUUGCUUUAGUCGUACAUGAGGAUCACCCAUGUAGGAUAUGGUAGGCUUUGCUUACUAGAAGGAUAGAGUGAUC [salish99_ExNG3_r04_605] (Eterna round: R96, puzzle: Exclusion NG 3)”, the “apparent KD of MS2 coat protein” value (input ligand: FMN 200 uM) was 0.289 µM, the “apparent KD of MS2 coat protein” value under setting [1] was 0.0628 µM and the “apparent KD of MS2 coat protein” value (input ligand: none) is 0.0942 µM.

With “AUAAUACAUGUAGGAUAUGCGUGGCGAAGCUAUGCAGAAGGACAUGAGGAUCACCCAUGUUCUAGCGUCUGCGUACAGAUGCUA [JL eng1 1.35 mod 1] (Eterna round: R96, puzzle: Exclusion NG 1)”, the “apparent KD of MS2 coat protein” value runs as follows: (input ligand: FMN 200 uM) 0.0373 µM; under setting [1], 0.014 µM; (input ligand: none) 0.0181 µM.

As to “CCACGACAUGAGGAUCACCCAUGUGAGGAUAUGGCCUGAAAAGCGUGAGCAGUUUGUAUCAGAAGGCGCGUGGG [salish99_ex1_r4_065] (Eterna round: R97, puzzle: Exclusion 1)”, the “apparent KD of MS2 coat protein” value by setting is: (input ligand: FMN 200 uM) 0.0791 µM; (input ligand: none) 0.0538 µM.

With “GUACGAGCCAAACACGUGGACAUGAGGAUCACCCAUGUGUCACCGGAUCCAUAGAGCUCGUCUUACCGACAAAAGCU [Eternabot (Original) Solution 17] (Eterna round: R97, puzzle: Sensor, turn-off variant 1)”, the “apparent KD of MS2 coat protein” value reads like this: (input ligand: FMN 200 uM) 0.0289 µM; (input ligand: none) 0.0316 µM.

Take “GGUCCACAUGAGGAUCACCCAUGUUAGGAUAUCUCCCGCCUCCUCACUAGAGGCGGACAGAGAAGGAACAUCAA [Raerge] (puzzle: Exclusion 1)”: under setting [3], the “apparent KD of MS2 coat protein” value turned out to be 0.0232 µM.

Consider “CAGGGUAGAGGAUAUACGUAGGUACAGAUCCGUGUGAUCCUACAUGAGGAUCACCCAUGUAGAAGGCUAGCCUG [LRO-Excl2-06] (puzzle: Exclusion 2)”, for which the “apparent KD of MS2 coat protein” value under setting [3] was found to be 0.332 µM.

Take “GAAAAGUGAGGAUAUGGUAAAAGAAAAAGAAAAAGAAAACUCCAGAAGGCACAUGAGGAUCACCCAUGUAAAAG [salish99_ex4_r3_005] (puzzle: Exclusion 4)”: the “apparent KD of MS2 coat protein” value under setting [2] was 0.0269 µM, the “apparent KD of MS2 coat protein” value under setting [3] came out at 0.0194 µM and the “apparent KD of MS2 coat protein” value under setting [4] worked out at 0.0236 µM.
